Where two headings read alike, the source gives them in different places. The star is where a group is joined. TNBS = trinitrobenzene sulphonic acid, N-terminal block, O=[N+]([O-])c1cc([N+](=O)[O-])c(*)c([N+](=O)[O-])c1; pNA = O=[N+]([O-])c1ccc(N*)cc1
Tests used:
Assay in all cases: cell-based or functional assay
[1] = biological target: T1, Cathepsin B from bovine spleen (bovine, UniProt P07688 80-332)
[2] = biological target: T1, Cathepsin B from bovine spleen; remark: listed apart in the source
[3] = biological target: T1, Cathepsin B from bovine spleen; remark: listed apart in the source
[4] = biological target: T1, Cathepsin B from bovine spleen; remark: listed apart in the source
[5] = biological target: T1, Cathepsin B from bovine spleen; remark: listed apart in the source

Binder: H-Met-Gln-Lys-OH (also: MGO-modified, site not given here) [MGO-modified H-MQK-OH]
- Cathepsin B inhibition test, 2 mM peptide [1]: 99.5

Binder: H-Met-Thr-Arg-OH (also: MGO-modified, site not given here) [MGO-modified H-MTR-OH]
- Cathepsin B inhibition test, 2 mM peptide [1]: 104

Binder: Ac-KISIHL-OH [Ac-KISIHL-OH]
- Cathepsin B inhibition test, 2 mM peptide [2]: 149

Binder: Ac-Met-Thr-Arg-OH (also: MGO-modified, site not given here) [MGO-modified Ac-MTR-OH]
- Cathepsin B inhibition test, 2 mM peptide [1]: 119

Binder: H-QNGNK-OH [H-QNGNK-OH]
- Cathepsin B inhibition test, 2 mM peptide [3]: 171

Binder: Ac-Met-Gln-Lys-OH (also: MGO-modified, site not given here) [MGO-modified Ac-MQK-OH]
- Cathepsin B inhibition test, 2 mM peptide [1]: 69.2

Binder: Ac-NQKNNNQN-OH (also: MGO-modified, site not given here) [MGO-modified Ac-NQKNNNQN-OH]
- Cathepsin B inhibition test, 2 mM peptide [4]: 171

Binder: H-Cys-Asp-Arg-OH (also: MGO-modified, site not given here) [MGO-modified H-CDR-OH]
- Cathepsin B inhibition test, 2 mM peptide [1]: 96

Binder: Ac-Cys-Asp-Arg-OH [Ac-CDR-OH]
- Cathepsin B inhibition test, 2 mM peptide [1]: 121

Binder: Ac-QNDNR-OH (also: MGO-modified, site not given here) [MGO-modified Ac-QNDNR-OH]
- Cathepsin B inhibition test, 2 mM peptide [3]: 132

Binder: Ac-NQKN-OH [Ac-NQKN-OH]
- Cathepsin B inhibition test, 2 mM peptide [4]: 282

Binder: Ac-NQKNNNQN-OH [Ac-NQKNNNQN-OH]
- Cathepsin B inhibition test, 2 mM peptide [4]: 290

Binder: Ac-Leu-Leu-Lys-NH2 [Ac-LLK-NH2]
- Cathepsin B inhibition test, 2 mM peptide [5]: 159

Binder: Ac-Leu-Val-Lys-OH (also: MGO-modified, site not given here) [MGO-modified Ac-LVK-OH]
- Cathepsin B inhibition test, 2 mM peptide [5]: 80.8

Binder: Ac-QNDNR-OH [Ac-QNDNR-OH]
- Cathepsin B inhibition test, 2 mM peptide [3]: 162

Binder: Ac-Leu-Ile-Arg-NH2 [Ac-LIR-NH2]
- Cathepsin B inhibition test, 2 mM peptide [5]: 65.4

Binder: H-Met-Thr-Arg-OH [H-MTR-OH]
- Cathepsin B inhibition test, 2 mM peptide [1]: 143

Binder: Ac-KISI-OH [Ac-KISI-OH]
- Cathepsin B inhibition test, 2 mM peptide [2]: 133

Binder: Ac-Leu-Val-Lys-NH2 [Ac-LVK-NH2]
- Cathepsin B inhibition test, 2 mM peptide [5]: 92.7

Binder: H-Cys-Asp-Arg-OH [H-CDR-OH]
- Cathepsin B inhibition test, 2 mM peptide [1]: 165

Binder: Ac-Met-Thr-Arg-OH [Ac-MTR-OH]
- Cathepsin B inhibition test, 2 mM peptide [1]: 126

Binder: Ac-Leu-Val-Lys-OH [Ac-LVK-OH]
- Cathepsin B inhibition test, 2 mM peptide [5]: 144

Binder: Ac-PFKI-OH [Ac-PFKI-OH]
- Cathepsin B inhibition test, 2 mM peptide [2]: 152

Binder: Ac-QNGNR-OH (also: MGO-modified, site not given here) [MGO-modified Ac-QNGNR-OH]
- Cathepsin B inhibition test, 2 mM peptide [3]: 88.7

Binder: Ac-QNGNK-OH (also: MGO-modified, site not given here) [MGO-modified Ac-QNGNK-OH]
- Cathepsin B inhibition test, 2 mM peptide [3]: 89.2

Binder: Ac-Leu-Ile-Arg-OH [Ac-LIR-OH]
- Cathepsin B inhibition test, 2 mM peptide [5]: 128

B1: TNBS-FAK-pNA (peptide)
peptide: {TNBS}-Phe-Ala-Lys-pNA
SMILES: C[C@H](NC(=O)[C@H](Cc1ccccc1)Nc1c([N+](=O)[O-])cc([N+](=O)[O-])cc1[N+](=O)[O-])C(=O)N[C@@H](CCCCN)C(=O)Nc1ccc([N+](=O)[O-])cc1
- Cathepsin B inhibition test, 2 mM peptide [1]: 99.3

Binder: Ac-NQKN-OH (also: MGO-modified, site not given here) [MGO-modified Ac-NQKN-OH]
- Cathepsin B inhibition test, 2 mM peptide [4]: 102

Binder: Ac-Leu-Ile-Arg-NH2 (also: MGO-modified, site not given here) [MGO-modified Ac-LIR-NH2]
- Cathepsin B inhibition test, 2 mM peptide [5]: 72.6

Binder: Ac-NQKNNN-OH [Ac-NQKNNN-OH]
- Cathepsin B inhibition test, 2 mM peptide [4]: 147

Binder: Ac-Leu-Val-Lys-NH2 (also: MGO-modified, site not given here) [MGO-modified Ac-LVK-NH2]
- Cathepsin B inhibition test, 2 mM peptide [5]: 80

Binder: Ac-Leu-Ile-Arg-OH (also: MGO-modified, site not given here) [MGO-modified Ac-LIR-OH]
- Cathepsin B inhibition test, 2 mM peptide [5]: 0.07

Binder: H-QNDNK-OH (also: MGO-modified, site not given here) [MGO-modified H-QNDNK-OH]
- Cathepsin B inhibition test, 2 mM peptide [3]: 68.4

Binder: H-QNGNR-OH [H-QNGNR-OH]
- Cathepsin B inhibition test, 2 mM peptide [3]: 74.4

Binder: Ac-PFKI-OH (also: MGO-modified, site not given here) [MGO-modified Ac-PFKI-OH]
- Cathepsin B inhibition test, 2 mM peptide [2]: 91.5

Binder: H-QNGNR-OH (also: MGO-modified, site not given here) [MGO-modified H-QNGNR-OH]
- Cathepsin B inhibition test, 2 mM peptide [3]: 85

Binder: Ac-QNGNK-OH [Ac-QNGNK-OH]
- Cathepsin B inhibition test, 2 mM peptide [3]: 187

Binder: Ac-NQKNNN-OH (also: MGO-modified, site not given here) [MGO-modified Ac-NQKNNN-OH]
- Cathepsin B inhibition test, 2 mM peptide [4]: 87.5

Binder: H-QNDNK-OH [H-QNDNK-OH]
- Cathepsin B inhibition test, 2 mM peptide [3]: 104

Binder: H-QNDNR-OH [H-QNDNR-OH]
- Cathepsin B inhibition test, 2 mM peptide [3]: 162

Binder: Ac-Leu-Leu-Lys-NH2 (also: MGO-modified, site not given here) [MGO-modified Ac-LLK-NH2]
- Cathepsin B inhibition test, 2 mM peptide [5]: 137

Binder: Ac-QNGNR-OH [Ac-QNGNR-OH]
- Cathepsin B inhibition test, 2 mM peptide [3]: 101

Binder: Ac-Leu-Leu-Lys-OH [Ac-LLK-OH]
- Cathepsin B inhibition test, 2 mM peptide [5]: 142

Binder: Ac-Cys-Asp-Arg-OH (also: MGO-modified, site not given here) [MGO-modified Ac-CDR-OH]
- Cathepsin B inhibition test, 2 mM peptide [1]: 78.5

Binder: H-QNGNK-OH (also: MGO-modified, site not given here) [MGO-modified H-QNGNK-OH]
- Cathepsin B inhibition test, 2 mM peptide [3]: 119

Binder: Ac-NQKNNNQNDN-OH (also: MGO-modified, site not given here) [MGO-modified Ac-NQKNNNQNDN-OH]
- Cathepsin B inhibition test, 2 mM peptide [4]: 123

Binder: Ac-Lys-Asn-OH [Ac-KN-OH]
- Cathepsin B inhibition test, 2 mM peptide [4]: 150

Binder: {TNBS}-Phe-Ala-Lys-pNA (also: MGO-modified, site not given here) [MGO-modified TNBS-FAK-pNA]
- Cathepsin B inhibition test, 2 mM peptide [1]: 122

Binder: Ac-KISI-OH (also: MGO-modified, site not given here) [MGO-modified Ac-KISI-OH]
- Cathepsin B inhibition test, 2 mM peptide [2]: 92.8

Binder: Ac-Leu-Leu-Lys-OH (also: MGO-modified, site not given here) [MGO-modified Ac-LLK-OH]
- Cathepsin B inhibition test, 2 mM peptide [5]: 148

Binder: Ac-NQKNNNQNDN-OH [Ac-NQKNNNQNDN-OH]
- Cathepsin B inhibition test, 2 mM peptide [4]: 254

Binder: Ac-QNDNK-OH (also: MGO-modified, site not given here) [MGO-modified Ac-QNDNK-OH]
- Cathepsin B inhibition test, 2 mM peptide [3]: 122

Binder: Ac-Met-Gln-Lys-OH [Ac-MQK-OH]
- Cathepsin B inhibition test, 2 mM peptide [1]: 121

Binder: Ac-QNDNK-OH [Ac-QNDNK-OH]
- Cathepsin B inhibition test, 2 mM peptide [3]: 167

From patent publication US20150337019A1 (MANUKAMED HOLDINGS LIMITED PARTNERSHIP, published 2015)
